Laboratory results from IntAct's records for PubMed 18547396.

B1: Protein TIFY 10A (Arabidopsis thaliana (Mouse-ear cress)), Q9LMA8 (parent)
chain: MSSSMECSEFVGSRRFTGKKPSFSQTCSRLSQYLKENGSFGDLSLGMACKPDVNGTLGNSRQPTTTMSLFPCEASNMDSMVQDVKPTNLFPRQPSFSSSSSSLPKEDVLKMTQTTRSVKPESQTAPLTIFYAGQVIVFNDFSAEKAKEVINLASKGTANSLAKNQTDIRSNIATIANQVPHPRKTTTQEPIQSSPTPLTELPIARRASLHRFLEKRKDRVTSKAPYQLCDPAKASSNPQTTGNMSWLGLAAEI
partner: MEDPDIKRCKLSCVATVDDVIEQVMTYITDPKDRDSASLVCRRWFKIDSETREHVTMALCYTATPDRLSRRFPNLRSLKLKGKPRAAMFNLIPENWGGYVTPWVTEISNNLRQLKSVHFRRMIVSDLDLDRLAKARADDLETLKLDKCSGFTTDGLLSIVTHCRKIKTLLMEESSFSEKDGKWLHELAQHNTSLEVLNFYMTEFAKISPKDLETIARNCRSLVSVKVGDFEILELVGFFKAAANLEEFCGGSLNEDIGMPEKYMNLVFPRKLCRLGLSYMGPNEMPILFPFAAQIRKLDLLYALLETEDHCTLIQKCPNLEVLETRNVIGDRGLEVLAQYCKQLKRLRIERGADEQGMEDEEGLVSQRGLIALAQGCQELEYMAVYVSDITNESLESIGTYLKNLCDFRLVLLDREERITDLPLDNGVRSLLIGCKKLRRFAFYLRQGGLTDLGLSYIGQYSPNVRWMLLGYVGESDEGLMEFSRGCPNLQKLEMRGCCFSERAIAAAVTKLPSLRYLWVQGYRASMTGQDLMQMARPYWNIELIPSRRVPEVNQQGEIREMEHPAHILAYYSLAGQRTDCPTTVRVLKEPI
B2: Protein TIFY 7 (Arabidopsis thaliana (Mouse-ear cress)), Q8W4J8 (parent)
chain: MERDFLGLSDKQYLSNNVKHEVNDDAVEERGLSTKAAREWGKSKVFATSSFMPSSDFQEAKAFPGAYQWGSVSAANVFRRCQFGGAFQNATPLLLGGSVPLPTHPSLVPRVASSGSSPQLTIFYGGTISVFNDISPDKAQAIMLCAGNGLKGETGDSKPVREAERMYGKQIHNTAATSSSSATHTDNFSRCRDTPVAATNAMSMIESFNAAPRNMIPSVPQARKASLARFLEKRKERLMSAMPYKKMLLDLSTGESSGMNYSSTSPT
partner: B1 partner

Variants of: B1
Settings: with coi1_arath COI1, O04197

Effect of a mutation on the interaction, disrupting interaction:
R206A
R205A
R205A;R206A

Variants of: B2
Settings: with coi1_arath COI1, O04197

Effect of a mutation on the interaction, disrupting interaction:
R223A
K224A
R223A;K224A
